Reference: patent US20240091321A1 (AMICUS THERAPEUTICS, published 2024)
Values belong to the binder of their own block, whether it stands above or below them.

Columns and labels:
CI-MPR receptor [1] = target: T1, CI-MPR receptor; assay: CI-MPR-coated plate binding assay, conditioned media of HEK 293 cells, bound TPP1 activity
T1 construct: also called IGF2/CI-MPR; IGF2/Mannose-6-phosphate receptor
Experimental: (§1) In the binding assay, a plate was first coated with CI-MPR. Next, a sample containing the enzyme of interest was incubated on the plate. The plate was washed so that only substances bound to CI-MPR remain on the plate. The amount of the enzyme of interest bound to the plate was determined by enzyme assay or by mass spec. The binding assay was performed at a range of concentrations of the enzyme of interest in order to obtain a binding curve.

CI-MPR receptor [2] = target: T1, CI-MPR receptor; assay: CIMPR plate binding assay, bound NAGLU activity (4MU released)
CI-MPR receptor [3] = target: T1, CI-MPR receptor; assay: CIMPR binding assay, PPT1 conditioned media, curves starting at 25 nM, bound PPT1 activity; the table prints no units, units of the axes
CI-MPR receptor [4] = target: T1, CI-MPR receptor; assay: CIMPR binding assay, PPT1 conditioned media, dilution starting at 50 nM, bound PPT1 activity; the table prints no units, units of the axes
CI-MPR receptor [5] = target: T1, CI-MPR receptor; assay: CI-MPR plate-binding assay in presence of M6P, bound PPT1 by activity assay
Experimental: as §1
CI-MPR plate-binding assay performed as previously described, then amount bound was determined by PPT1 activity assay.

B1: Natural hTTP1 (enzyme)
enzyme: SYSPEPDQRRTLPPGWVSLGRADPEEELSLTFALRQQNVERLSELVQAVSDPSSPQYGKYLTLENVADLVRPSPLTLHTVQKWLLAAGAQKCHSVITQDFLTCWLSIRQAELLLPGAEFHHYVGGPTETHVVRSPHPYQLPQALAPHVDFVGGLHRFPPTSSLRQRPEPQVTGTVGLHLGVTPSVIRKRYNLTSQDVGSGTSNNSQACAQFLEQYFHDSDLAQFMRLFGGNFAHQASVARVVGQQGRGRAGIEASLDVQYLMSAGANISTWVYSSPGRHEGQEPFLQWLMLLSNESALPHVHTVSYGDDEDSLSSAYIQRVNTELMKAAARGLTLLFASGDSGAGCWSVSGRHQFRPTFPASSPYVTTVGGTSFQEPFLITNEIVDYISGGGFSNVFPRPSYQEEAVTKFLSSSPHLPPSSYFNASGRAYPDVAALSDGYWVVSNRVPIPWVSGTSASTPVFGGILSLINEHRILSGRPPLGFLNPRLYQQHGAGLFDVTRGCHESCLDEEVEGQGFCSGPGWDPVTGWGTPNFPALLKTLLNP
notes: also called WT TPP1; TPP1 wildtype
EC50 (read off the curve) (CI-MPR receptor [1]): ~0.4 nM

B4: PPT1-32 (wt-PPT1-vIGF2-32) (enzyme)
chain: DPPAPLPLVIWHGMGDSCCNPLSMGAIKKMVEKKIPGIYVLSLEIGKTLMEDVENSFFLNVNSQVTTVCQALAKDPKLQQGYNAMGFSQGGQFLRAVAQRCPSPPMINLISVGGQHQGVFGLPRCPGESSHICDFIRKTLNAGAYSKVVQERLVQAEYWHDPIKEDVYRNHSIFLADINQERGINESYKKNLMALKKFVMVKFLNDSIVDPVDSEWFGFYRSGQAKETIPLQETSLYTQDRLGLKEMDNAGQLVFLATEGDHLQLSEEWFYAHIIPFLGRPRAVPTQGGSGSGSTSSSRTLCGGELVDTLQFVCGDRGFLFSRGGGGSRGILEECCFRECDLALLETYCATPARSE
notes: Whole entry; it includes the native PPT1 signal peptide
Bmax (CI-MPR receptor [5]): 6.05
Relative Kd (CI-MPR receptor [5]): 0.121

B5: PPT1-29 (BiP2aa-vIGF2-PPT1) (enzyme)
chain: MKLSLVAAMLLLLWVALLLLSAARAAASRTLCGGELVDTLQFVCGDRGFLFSRPASRVSRRSRGIVEECCFRSCDLALLETYCATPARSEGGGGSGGGGSRPRAVPTQDPPAPLPLVIWHGMGDSCCNPLSMGAIKKMVEKKIPGIYVLSLEIGKTLMEDVENSFFLNVNSQVTTVCQALAKDPKLQQGYNAMGFSQGGQFLRAVAQRCPSPPMINLISVGGQHQGVFGLPRCPGESSHICDFIRKTLNAGAYSKVVQERLVQAEYWHDPIKEDVYRNHSIFLADINQERGINESYKKNLMALKKFVMVKFLNDSIVDPVDSEWFGFYRSGQAKETIPLQETSLYTQDRLGLKEMDNAGQLVFLATEGDHLQLSEEWFYAHIIPFLG
notes: Whole entry; it includes the modified BiP signal peptide
Bmax (CI-MPR receptor [5]): 8.98
Relative Kd (CI-MPR receptor [5]): 0.107

Results, then the binder that gave them:

Kd (CI-MPR receptor [2]): 325 nM
B2: WT NAGLU (enzyme)
enzyme: DEAREAAAVRALVARLLGPGPAADFSVSVERALAAKPGLDTYSLGGGGAARVRVRGSTGVAAAAGLHRYLRDFCGCHVAWSGSQLRLPRPLPAVPGELTEATPNRYRYYQNVCTQSYSFVWWDWARWEREIDWMALNGINLALAWSGQEAIWQRVYLALGLTQAEINEFFTGPAFLAWGRMGNLHTWDGPLPPSWHIKQLYLQHRVLDQMRSFGMTPVLPAFAGHVPEAVTRVFPQVNVTKMGSWGHFNCSYSCSFLLAPEDPIFPIIGSLFLRELIKEFGTDHIYGADTFNEMQPPSSEPSYLAAATTAVYEAMTAVDTEAVWLLQGWLFQHQPQFWGPAQIRAVLGAVPRGRLLVLDLFAESQPVYTRTASFQGQPFIWCMLHNFGGNHGLFGALEAVNGGPEAARLFPNSTMVGTGMAPEGISQNEVVYSLMAELGWRKDPVPDLAAWVTSFAARRYGVSHPDAGAAWRLLLRSVYNCSGEACRGHNRSPLVRRPSLQMNTSIWYNRSDVFEAWRLLLTSAPSLATSPAFRYDLLDLTRQAVQELVSLYYEEARSAYLSKELASLLRAGGVLAYELLPALDEVLASDSRFLLGSWLEQARAAAVSEAEADFYEQNSRYQLTLWGPEGNILDYANKQLAGLVANYYTPRWRLFLEALVDSVAQGIPFQQHQFDKNVFQLEQAFVLSKQRYPSQPRGDTVDLAKKIFLKYYPRWVAGSW
notes: also called untagged NAGLU

Kd (CI-MPR receptor [3]): 3.87 nM
Kd (CI-MPR receptor [4]): 3.41 nM
B3: PPT1-104 (enzyme)
fusion protein: B4 chain

Kd (CI-MPR receptor [3]): 4.57 nM
Kd (CI-MPR receptor [4]): 4.12 nM
B6: PPT1-101 (enzyme)
fusion protein: MKLSLVAAMLLLLWVALLLLSAARAAASRTLCGGELVDTLQFVCGDRGFLFSRGGGGSRGILEECCFRDCDLALLETYCATPARSEGGGGSGGGGSRPRAVPTQDPPAPLPLVIWHGMGDSCCNPLSMGAIKKMVEKKIPGIYVLSLEIGKTLMEDVENSFFLNVNSQVTTVCQALAKDPKLQQGYNAMGFSQGGQFLRAVAQRCPSPPMINLISVGGQHQGVFGLPRCPGESSHICDFIRKTLNAGAYSKVVQERLVQAEYWHDPIKEDVYRNHSIFLADINQERGINESYKKNLMALKKFVMVKFLNDSIVDPVDSEWFGFYRSGQAKETIPLQETSLYTQDRLGLKEMDNAGQLVFLATEGDHLQLSEEWFYAHIIPFLG

Bmax (CI-MPR receptor [5]): 9.19
Relative Kd (CI-MPR receptor [5]): 0.143
B7: PPT1-33 (wt-PPT1-vIGF2-8Q) (enzyme)
chain: DPPAPLPLVIWHGMGDSCCNPLSMGAIKKMVEKKIPGIYVLSLEIGKTLMEDVENSFFLNVNSQVTTVCQALAKDPKLQQGYNAMGFSQGGQFLRAVAQRCPSPPMINLISVGGQHQGVFGLPRCPGESSHICDFIRKTLNAGAYSKVVQERLVQAEYWHDPIKEDVYRNHSIFLADINQERGINESYKKNLMALKKFVMVKFLNDSIVDPVDSEWFGFYRSGQAKETIPLQETSLYTQDRLGLKEMDNAGQLVFLATEGDHLQLSEEWFYAHIIPFLGRPRAVPTQGGSGSGSTSSSRTLCGGELVDTLQFVCGDRGFLFSRPASRVSRRSRGIVEECCFRECDLALLETYCATPARSE
notes: as for B4
